Source: the supplement of paper PMC9112550, “Optimization of the antimicrobial peptide Bac7 by deep mutational scanning” (BMC Biology, 2022)
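Note: peptides expressed intracellularly from a pBAD plasmid library in pooled LB shake-flask culture, induced with 0.3% L-arabinose, DNA abundance read by NGS, three biological replicates, DESeq2 with apeglm shrinkage.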

The sequences below were run on Escherichia coli TOP10 (assay: shrunken log2 fold change of peptide-encoding DNA abundance (4.5 h post-induction vs induction); higher = less antimicrobial activity (less host growth inhibition)). Conditions: time post-induction: 4.5 h; library: site-saturation at positions 5, 18, 19, 20.
RRIRMRPPRLPRPRPRPSDSPRP was tested, and the “shrunken log2 fold change” value was 0.0495. RRIRMRPPRLPRPRPRPSDTPRP was tested, and the “shrunken log2 fold change” value was 0.232. RRIRMRPPRLPRPRPRPSEFPRP was tested, and the “shrunken log2 fold change” value was -0.143. In the case of RRIRMRPPRLPRPRPRPSEYPRP, the “shrunken log2 fold change” value was 0.0493. For RRIRMRPPRLPRPRPRPSFRPRP, the “shrunken log2 fold change” value was 0.142. With RRIRMRPPRLPRPRPRPSGEPRP the “shrunken log2 fold change” value was 0.824. RRIRMRPPRLPRPRPRPSGWPRP was tested, and the “shrunken log2 fold change” value was 0.934. In the case of RRIRMRPPRLPRPRPRPSHNPRP, the “shrunken log2 fold change” value was -0.194. With RRIRMRPPRLPRPRPRPSHRPRP the “shrunken log2 fold change” value was 0.254. With RRIRMRPPRLPRPRPRPSHWPRP the “shrunken log2 fold change” value was 0.0911. With RRIRMRPPRLPRPRPRPSKHPRP the “shrunken log2 fold change” value was 0.159. RRIRMRPPRLPRPRPRPSLKPRP was tested, and the “shrunken log2 fold change” value was 0.359. RRIRMRPPRLPRPRPRPSLQPRP was tested, and the “shrunken log2 fold change” value was 0.385. For RRIRMRPPRLPRPRPRPSMEPRP, the “shrunken log2 fold change” value was 0.484. For RRIRMRPPRLPRPRPRPSMMPRP, the “shrunken log2 fold change” value was 0.0163. With RRIRMRPPRLPRPRPRPSMQPRP the “shrunken log2 fold change” value was 0.345. In the case of RRIRMRPPRLPRPRPRPSMVPRP, the “shrunken log2 fold change” value was 0.0557. RRIRMRPPRLPRPRPRPSMWPRP was tested, and the “shrunken log2 fold change” value was 0.09. For RRIRMRPPRLPRPRPRPSPFPRP, the “shrunken log2 fold change” value was 0.124. RRIRMRPPRLPRPRPRPSQEPRP was tested, and the “shrunken log2 fold change” value was 0.226. In the case of RRIRMRPPRLPRPRPRPSQQPRP, the “shrunken log2 fold change” value was 0.463. For RRIRMRPPRLPRPRPRPSQVPRP, the “shrunken log2 fold change” value was -0.0436. With RRIRMRPPRLPRPRPRPSRAPRP the “shrunken log2 fold change” value was 1.18. In the case of RRIRMRPPRLPRPRPRPSTIPRP, the “shrunken log2 fold change” value was -0.23. In the case of RRIRMRPPRLPRPRPRPSVFPRP, the “shrunken log2 fold change” value was -0.0403. With RRIRMRPPRLPRPRPRPSVMPRP the “shrunken log2 fold change” value was -0.194. For RRIRMRPPRLPRPRPRPSWMPRP, the “shrunken log2 fold change” value was -0.0767. For RRIRMRPPRLPRPRPRPSYAPRP, the “shrunken log2 fold change” value was -0.0187. For RRIRMRPPRLPRPRPRPSYCPRP, the “shrunken log2 fold change” value was -0.236. In the case of RRIRMRPPRLPRPRPRPSYTPRP, the “shrunken log2 fold change” value was -0.38. RRIRMRPPRLPRPRPRPTEKPRP was tested, and the “shrunken log2 fold change” value was 1.36. In the case of RRIRMRPPRLPRPRPRPTELPRP, the “shrunken log2 fold change” value was 0.172. With RRIRMRPPRLPRPRPRPTGFPRP the “shrunken log2 fold change” value was 1.12. With RRIRMRPPRLPRPRPRPTGVPRP the “shrunken log2 fold change” value was 0.224. In the case of RRIRMRPPRLPRPRPRPTHAPRP, the “shrunken log2 fold change” value was 0.995. With RRIRMRPPRLPRPRPRPTHDPRP the “shrunken log2 fold change” value was 0.81. RRIRMRPPRLPRPRPRPTHRPRP was tested, and the “shrunken log2 fold change” value was 0.929. With RRIRMRPPRLPRPRPRPTILPRP the “shrunken log2 fold change” value was -0.0108. For RRIRMRPPRLPRPRPRPTINPRP, the “shrunken log2 fold change” value was -0.109. With RRIRMRPPRLPRPRPRPTKYPRP the “shrunken log2 fold change” value was -0.152. With RRIRMRPPRLPRPRPRPTLCPRP the “shrunken log2 fold change” value was 0.122. With RRIRMRPPRLPRPRPRPTMFPRP the “shrunken log2 fold change” value was 0.137. In the case of RRIRMRPPRLPRPRPRPTMYPRP, the “shrunken log2 fold change” value was 0.187. For RRIRMRPPRLPRPRPRPTNDPRP, the “shrunken log2 fold change” value was 0.231. With RRIRMRPPRLPRPRPRPTNIPRP the “shrunken log2 fold change” value was -0.0556. With RRIRMRPPRLPRPRPRPTNLPRP the “shrunken log2 fold change” value was -0.0631. With RRIRMRPPRLPRPRPRPTPQPRP the “shrunken log2 fold change” value was 1.31. In the case of RRIRMRPPRLPRPRPRPTQMPRP, the “shrunken log2 fold change” value was 0.195. For RRIRMRPPRLPRPRPRPTRAPRP, the “shrunken log2 fold change” value was 1.42. In the case of RRIRMRPPRLPRPRPRPTRCPRP, the “shrunken log2 fold change” value was 0.863. With RRIRMRPPRLPRPRPRPTRPPRP the “shrunken log2 fold change” value was 1.32. RRIRMRPPRLPRPRPRPTSQPRP was tested, and the “shrunken log2 fold change” value was 0.393. RRIRMRPPRLPRPRPRPTVQPRP was tested, and the “shrunken log2 fold change” value was -0.0862. In the case of RRIRMRPPRLPRPRPRPTWCPRP, the “shrunken log2 fold change” value was -0.0681. For RRIRMRPPRLPRPRPRPTYWPRP, the “shrunken log2 fold change” value was 0.169. In the case of RRIRMRPPRLPRPRPRPVAIPRP, the “shrunken log2 fold change” value was 0.104. RRIRMRPPRLPRPRPRPVCTPRP was tested, and the “shrunken log2 fold change” value was 0.479. In the case of RRIRMRPPRLPRPRPRPVCVPRP, the “shrunken log2 fold change” value was 0.241. RRIRMRPPRLPRPRPRPVDDPRP was tested, and the “shrunken log2 fold change” value was -0.0248. With RRIRMRPPRLPRPRPRPVDFPRP the “shrunken log2 fold change” value was 0.159. For RRIRMRPPRLPRPRPRPVDGPRP, the “shrunken log2 fold change” value was 1.08. With RRIRMRPPRLPRPRPRPVDLPRP the “shrunken log2 fold change” value was 0.405. With RRIRMRPPRLPRPRPRPVELPRP the “shrunken log2 fold change” value was -0.281. For RRIRMRPPRLPRPRPRPVFQPRP, the “shrunken log2 fold change” value was 0.168. For RRIRMRPPRLPRPRPRPVFVPRP, the “shrunken log2 fold change” value was 0.0672. In the case of RRIRMRPPRLPRPRPRPVGKPRP, the “shrunken log2 fold change” value was 0.216. For RRIRMRPPRLPRPRPRPVGTPRP, the “shrunken log2 fold change” value was 0.477. RRIRMRPPRLPRPRPRPVGYPRP was tested, and the “shrunken log2 fold change” value was 0.515. RRIRMRPPRLPRPRPRPVHNPRP was tested, and the “shrunken log2 fold change” value was -0.0275. For RRIRMRPPRLPRPRPRPVIPPRP, the “shrunken log2 fold change” value was -0.259. With RRIRMRPPRLPRPRPRPVIYPRP the “shrunken log2 fold change” value was -0.0966. With RRIRMRPPRLPRPRPRPVKWPRP the “shrunken log2 fold change” value was 0.0346. For RRIRMRPPRLPRPRPRPVMKPRP, the “shrunken log2 fold change” value was 0.0713. RRIRMRPPRLPRPRPRPVNEPRP was tested, and the “shrunken log2 fold change” value was 0.0186. For RRIRMRPPRLPRPRPRPVNMPRP, the “shrunken log2 fold change” value was -0.292.
